Measurements from US20250340643A1.

Tests used:
[1] = molecular target: CTLA4 on the cells of the reporter gene bioassay (human) (UniProt P16410); assay: cell-based or functional assay
[2] = molecular target: recombinant FcRn (UniProt P55899); assay: SPR, recombinant FcRn immobilized on the sensor; relative to Reference Standard
[3] = molecular target: CTLA-4 (as used in the CTLA-4 binding assay) (human) (UniProt P16410); assay: CTLA-4 binding relative to tremelimumab Reference Standard; method not named for this table (competitive ELISA or SPR per the methods)
Chain of CTLA-4 (as used in the CTLA-4 binding assay) (human) (P16410 36-161 limits assumed): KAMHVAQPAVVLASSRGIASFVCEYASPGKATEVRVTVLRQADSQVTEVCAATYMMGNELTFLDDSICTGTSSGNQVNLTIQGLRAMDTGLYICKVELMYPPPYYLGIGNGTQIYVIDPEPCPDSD

Chain of CTLA4 on the cells of the reporter gene bioassay (human) (P16410 36-223): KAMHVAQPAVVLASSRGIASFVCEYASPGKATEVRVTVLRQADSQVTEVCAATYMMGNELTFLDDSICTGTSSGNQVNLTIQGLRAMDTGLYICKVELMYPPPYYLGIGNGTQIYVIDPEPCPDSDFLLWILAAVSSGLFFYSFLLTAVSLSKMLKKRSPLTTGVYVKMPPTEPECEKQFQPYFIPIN
Chain of recombinant FcRn (P55899 24-297 limits assumed, form in doubt, chain 1 of 2): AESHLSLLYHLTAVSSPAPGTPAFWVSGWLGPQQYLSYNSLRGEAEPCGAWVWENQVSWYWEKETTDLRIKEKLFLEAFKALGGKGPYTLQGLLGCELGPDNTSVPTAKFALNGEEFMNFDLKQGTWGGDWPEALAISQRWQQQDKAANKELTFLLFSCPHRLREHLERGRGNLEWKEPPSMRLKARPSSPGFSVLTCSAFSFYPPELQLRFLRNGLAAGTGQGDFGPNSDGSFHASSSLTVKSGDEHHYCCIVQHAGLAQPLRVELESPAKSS
Chain of recombinant FcRn (chain, as listed by the source limits assumed, form in doubt, chain 2 of 2): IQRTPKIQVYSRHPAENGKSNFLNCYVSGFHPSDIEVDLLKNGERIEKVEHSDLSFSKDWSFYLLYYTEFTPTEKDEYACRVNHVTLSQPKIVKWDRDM

For “Tremelimumab IEC Fraction D (acidic peak 1), after pH 9 for 7 days (antibody)”, the Rel. Potency (%) (reporter gene bioassay) [1] was 78%, the Rel. FcRn Binding (%) [2] was 95% and the Rel. CTLA-4 Binding (%) [3] was 62%.
